Assay results reported in US20240262917A1, “ANTIBODIES AGAINST ALK AND METHODS OF USE THEREOF” (Dana-Farber Cancer Institute, Inc., priority 2021, published 2024).
Entries after “also recorded” stand apart in the source; their conditions may differ.

Key:
ALK [1] = experiment: Western blot analysis of ALK in cell lysates and conditioned media; format: binding, human
From the text: (A) Western blot analysis of ALK in Kelly and SHEP neuroblastoma cells overexpressing GFP and mutated ALK using the mAb-7 and 8G7 anti-ALK antibodies. The mAb-7 antibody was developed at the Vigny laboratory (INSERM, Unité 706/Université Pierre et Marie Curie, Paris F-75005, France) (Moog-Lutz et al, 2005; PMID: 15886198) and obtained through a Materials Transfer Agreement. (B) Western blot analysis of ALK expression in various non-neuroblastoma cell lines: H1373 (human […]), HeLa (cervical cancer), NIH-3T3 (transformed mouse fibroblast cells) using 8G7 and C26G7 (rabbit monoclonal C-terminal anti-ALK antibody; Cell Signaling Technology; Cat #3333; RRID:AB_836862) anti-ALK antibodies.
The three HPLC-purified monoclonal antibodies (5H3, 7F7 and 8G7) all of the IgG1 subtype, were tested for their ability to bind to ALK in neuroblastoma cells expressing ALK. Both cell lysates and supernatants from cells grown with and without serum (to increase the expression of ALK) were tested by western blotting. […] (A) Western blot analysis of the indicated hybridoma clones in neuroblastoma cell lines expressing WT (NGP) and mutated (SHSY5Y, Kelly) ALK. NIH3T3 cells were used as controls. (B) Western blot analysis of conditioned media from NGP neuroblastoma and 293T cells engineered to express the WT ALK receptor, with the three ALK mAbs showing binding with the shed ALK extracellular domain. […]
Cell lysates were prepared in NP-40 buffer (Invitrogen) containing complete protease inhibitor (Roche), phosphatase inhibitor (Roche) and phenylmethylsulfonyl fluoride (PMSF). Lysates were incubated on ice for 20 min and centrifuged at 16,000 g for 15 min at 4° C. Protein concentrations of the supernatants were determined with the DC protein assay kit (Bio-Rad). Protein samples were denatured using NuPAGE LDS sample buffer (Invitrogen) and NuPAGE sample reducing agent (Invitrogen). Proteins were then separated on precast 4-12% Bis-Tris gels (Invitrogen) and transferred to nitrocellulose membranes (Bio-Rad). […]

ALK [2] = molecular target: ALK (Homo sapiens, UniProt Q9UM73); experiment: Screening and subcloning of hybridomas (ELISA, FCM, functional assays); format: binding; design: The human ALK extracellular domain (19-682 aa) fused to the mouse Fc gene; made in house; host or cells: 293T cells; conditions: after subcloning by limiting dilution
Protocol: HAT-selected fused cells were distributed in 96 well plates and the hybridoma supernatants were subjected to several rounds of screening. Initial screening was performed using ELISA against human Fc to test antigen binding with the ALK ECD-human Fc fusion protein. […] These were rescreened by FACS against Ba/F3 and neuroblastoma (NB) cells expressing ALK. From this screen, 22 positive hybridoma supernatants were tested in an antigen-binding capture ELISA assay and 11 were subsequently selected for further analysis. (A) Binding of hybridoma supernatants using an antigen-binding capture assay. The plate was coated with goat-anti-mouse IgG Fc, incubated with hybridoma supernatants, followed by ALK-HRP and visualized using an HRP substrate. (B) Binding of selected hybridoma supernatants to a human Fc antibody using ELISA screening. Plates were coated with the ALK ECD-human Fc fusion protein (ALK-hFc) together with an irrelevant hFc protein and visualized using an anti-mouse kappa light chain antibody. Only the supernatants with the highest binding are shown.
Supernatants from individual clones were then screened by ELISA and FACS analysis for ALK binding. Shown here is the viability of NGP neuroblastoma cells (expressing ALK) in the presence of anti-mouse IgG antibody in hybridoma clone supernatants. […]

ALK receptor = molecular target: T1, ALK receptor (Homo sapiens, UniProt Q9UM73, F1174L); experiment: Immunofluorescence detection of ALK; format: binding
T1 construct: expressed in transfected cells; host or cells: SHEP neuroblastoma cells
From the text: (A) IF images (40×) of NGP neuroblastoma cells expressing wild type ALK stained with the 8G7 antibody. A 1:100 antibody dilution was used. […] The last plasmid serves as a negative control similar to NIH3T3-MSCV cells in which the vector only is expressed.
Immunofluorescence detection of ALK with 8G7 and 7F7 antibodies in SHEP NB cells engineered to express the ALKF1174L mutation. Staining with the M13 antibody obtained from the Vigny laboratory under an MTA is shown for comparison (Moog-Lutz et al, 2005). Cells expressing the vector only (SHEP) were used as controls. Cells were stained with a 1:100 dilution of antibody. Images were captured at 40× with a Zeiss AXIO Imager Z1 fluorescence microscope.
Cells (0.5×10^6 per well) were seeded into six-well plates and grown on glass coverslips for 24 hr. before fixation in 4% paraformaldehyde in PBS for 15 min at room temperature (RT), washed with PBS, permeabilized in 0.1% Triton X-100, and blocked with PBS containing 0.05% Tween-20 and 5% BSA for 1 hr. to block nonspecific binding. Then, cells were incubated with the 8G7 antibody (1:100) overnight at 4° C. After washing with PBS, cells were incubated with AlexaFluor 568-conjugated secondary antibody for 1 hr. at 25° C. Images were collected on a Zeiss AXIO Imager Z1 fluorescence microscope. […] After 24 hours, cells were washed once in PBS, fixed in 4% paraformaldehyde in PBS, washed, permeabilized in 0.1% Triton X-100, and blocked in PBS containing 10% horse serum. […] The next day, cells were washed, incubated in goat anti-rabbit IgG secondary antibody (1:1000) for 1 hr. washed, and incubated in Streptavidin-TexasRed (1:1000) for 1 hr. Cover slips were mounted onto slides using mounting medium containing DAPI. Images were collected on a Zeiss AXIO Imager Z1 fluorescence microscope.

T1 sequence (Q9UM73 19-1620 F1174L): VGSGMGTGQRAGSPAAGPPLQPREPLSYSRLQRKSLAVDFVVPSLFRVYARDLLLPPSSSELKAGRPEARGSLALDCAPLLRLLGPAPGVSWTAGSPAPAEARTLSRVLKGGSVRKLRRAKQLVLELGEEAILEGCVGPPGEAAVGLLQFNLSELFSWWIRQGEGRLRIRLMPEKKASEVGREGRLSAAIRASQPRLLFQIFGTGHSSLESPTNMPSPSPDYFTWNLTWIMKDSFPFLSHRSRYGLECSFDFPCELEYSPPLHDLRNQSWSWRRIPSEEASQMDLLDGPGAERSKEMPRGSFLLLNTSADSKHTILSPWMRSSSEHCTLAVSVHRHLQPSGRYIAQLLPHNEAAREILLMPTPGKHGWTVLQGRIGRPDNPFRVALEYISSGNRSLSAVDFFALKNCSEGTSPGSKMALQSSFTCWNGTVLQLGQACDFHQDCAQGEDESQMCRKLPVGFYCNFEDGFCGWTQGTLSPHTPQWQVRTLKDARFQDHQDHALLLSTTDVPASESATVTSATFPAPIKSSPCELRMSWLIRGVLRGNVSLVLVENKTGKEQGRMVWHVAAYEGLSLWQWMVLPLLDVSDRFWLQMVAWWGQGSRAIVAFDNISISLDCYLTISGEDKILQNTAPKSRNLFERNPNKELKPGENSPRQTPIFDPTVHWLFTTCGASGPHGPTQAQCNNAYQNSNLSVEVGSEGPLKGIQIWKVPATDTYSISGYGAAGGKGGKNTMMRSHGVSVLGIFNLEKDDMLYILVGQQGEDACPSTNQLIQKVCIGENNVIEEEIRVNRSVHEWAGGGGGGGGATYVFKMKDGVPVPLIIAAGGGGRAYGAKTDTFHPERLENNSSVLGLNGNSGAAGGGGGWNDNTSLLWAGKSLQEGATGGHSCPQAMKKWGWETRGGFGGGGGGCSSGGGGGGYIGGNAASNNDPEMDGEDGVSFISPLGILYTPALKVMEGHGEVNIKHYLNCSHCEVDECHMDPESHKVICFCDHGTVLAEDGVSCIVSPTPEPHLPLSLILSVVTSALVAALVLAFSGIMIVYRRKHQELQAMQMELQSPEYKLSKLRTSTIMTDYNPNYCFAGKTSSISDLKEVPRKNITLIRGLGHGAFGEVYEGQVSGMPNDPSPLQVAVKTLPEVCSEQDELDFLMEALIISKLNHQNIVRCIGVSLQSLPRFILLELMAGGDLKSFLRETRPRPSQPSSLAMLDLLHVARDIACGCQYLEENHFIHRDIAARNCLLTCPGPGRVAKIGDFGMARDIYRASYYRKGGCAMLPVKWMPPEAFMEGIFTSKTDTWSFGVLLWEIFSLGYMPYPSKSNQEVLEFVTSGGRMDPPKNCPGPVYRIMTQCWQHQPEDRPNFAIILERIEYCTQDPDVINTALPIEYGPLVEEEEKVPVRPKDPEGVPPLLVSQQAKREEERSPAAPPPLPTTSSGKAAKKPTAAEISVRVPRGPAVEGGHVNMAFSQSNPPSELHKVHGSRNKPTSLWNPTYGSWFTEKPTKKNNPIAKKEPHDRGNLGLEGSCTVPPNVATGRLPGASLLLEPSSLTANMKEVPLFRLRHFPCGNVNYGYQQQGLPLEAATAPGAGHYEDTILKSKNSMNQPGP
ALK (Homo sapiens, UniProt Q9UM73), sequence (Q9UM73 19-682): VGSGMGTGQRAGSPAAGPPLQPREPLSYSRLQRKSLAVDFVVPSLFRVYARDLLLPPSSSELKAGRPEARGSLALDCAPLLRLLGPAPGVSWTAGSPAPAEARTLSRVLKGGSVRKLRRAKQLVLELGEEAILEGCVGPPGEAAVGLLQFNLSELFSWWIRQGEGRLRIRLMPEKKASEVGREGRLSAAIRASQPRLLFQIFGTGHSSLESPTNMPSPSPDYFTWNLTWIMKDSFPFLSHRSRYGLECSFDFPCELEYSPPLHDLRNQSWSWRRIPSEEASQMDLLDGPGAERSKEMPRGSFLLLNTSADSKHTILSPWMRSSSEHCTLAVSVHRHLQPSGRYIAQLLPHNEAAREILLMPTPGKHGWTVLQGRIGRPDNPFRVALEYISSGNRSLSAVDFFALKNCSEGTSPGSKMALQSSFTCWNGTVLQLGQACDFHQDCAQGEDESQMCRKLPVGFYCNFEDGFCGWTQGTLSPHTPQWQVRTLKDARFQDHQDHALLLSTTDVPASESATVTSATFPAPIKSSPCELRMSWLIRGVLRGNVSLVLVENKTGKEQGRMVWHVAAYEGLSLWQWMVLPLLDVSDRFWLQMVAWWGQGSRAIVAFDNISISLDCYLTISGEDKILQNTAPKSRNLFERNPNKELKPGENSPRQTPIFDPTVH

B1: 8G7: murine monoclonal IgG1 anti-ALK antibody to the N-terminal ECD of human ALK; VH SEQ ID NO: 3, VL SEQ ID NO: 4 (antibody, V domains shown)
VH: QVQLQQSGAELVRPGASVTLSCKASGYTFTDYEMHWVKQTPVHGLEWIGAIDPETGGSAYNQKFKAKAILTADRSSSTAYMELRSLTSEDSAVYYCTRTRYYGSSPAMDYWGQGTSVTVSS
VL: DIQMTQTTSSLSASLGDRVTISCSASQGIGNYLNWYQQKPDGTVKLLIYYTSSLHSGVPSRFSGSGSGTDYSLTISNLEPEDIATYYCQQYSKLPYTFGGGTKLEIK
ALK [1]
  recognition of ALK in immunoblotting assays: recognize ALK in immunoblotting assays
ALK [1]; FIG. 15 and FIG. 25, compared with mAb-7 and C26G7 anti-ALK antibodies
  specificity of ALK binding by western blot: better specificity compared to commercial Abs; also recorded: binds specifically to the N-terminal region of the ALK protein
ALK [2]
  ALK specificity of the clone's monoclonal antibody: high ALK specificity
ALK receptor; NIH3T3-ALK-del MAM2 to 654 aa, negative control
  recognition of ALK lacking the majority of the ECD in immunofluorescence: not recognized
ALK receptor; SHEP NB cells engineered to express the ALKF1174L mutation, 1:100 dilution of antibody
  binding to the ALK receptor in immunofluorescence: bind to the ALK receptor in immunofluorescence assays
ALK receptor; immunofluorescence, immunocytochemistry and immunohistochemistry
  recognition of ALK at the cell surface: recognize ALK at the cell surface by immunofluorescence, immunocytochemistry and immunohistochemistry
